Assay results taken from US20250114463A1, “LIVER-TARGETED DRUG AND USE THEREOF” (HANMI PHARM. CO., LTD., priority 2021, published 2025).
Bridges are numbered along the chain shown (N, C = ends). Where no end group is shown, it is not given here. [ ]: non-standard residue; d: D form. The star is where a group is joined. Acetyl(2-(4-imidazolyl)) = O=C(Cc1c[nH]cn1)*; Aib = CC(C)(N)C(=O)O

T1: human GIP receptor (human, UniProt P48546 22-466)
T1 sequence (looked up): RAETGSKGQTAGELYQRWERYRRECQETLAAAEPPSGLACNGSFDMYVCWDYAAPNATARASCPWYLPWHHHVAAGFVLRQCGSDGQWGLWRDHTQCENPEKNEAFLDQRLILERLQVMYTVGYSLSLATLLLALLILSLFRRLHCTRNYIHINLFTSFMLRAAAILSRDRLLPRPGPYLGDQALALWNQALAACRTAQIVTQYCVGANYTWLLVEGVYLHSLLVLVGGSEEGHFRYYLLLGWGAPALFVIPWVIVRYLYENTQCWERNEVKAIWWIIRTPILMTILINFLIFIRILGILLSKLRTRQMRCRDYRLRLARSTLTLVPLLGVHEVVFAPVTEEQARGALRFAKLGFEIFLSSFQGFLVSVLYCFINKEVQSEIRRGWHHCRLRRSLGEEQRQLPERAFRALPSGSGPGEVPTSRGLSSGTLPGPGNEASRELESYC

B1: triple agonist of SEQ ID NO: 71 (peptide)
peptide: Y[Aib]QGTFTSDYSKYLDERACKDFVQWLLDHHPSSGQPPPS
modifications: bridge 16-20; not fully specified (C-terminus)
B2: triple agonist of SEQ ID NO: 76 (peptide)
peptide: Y[Aib]QGTFTSDYSKYLDEKRAKDFVQWLLDHHPSSGQPPPSC
modifications: bridge 16-20; not fully specified (C-terminus)
B3: triple agonist of SEQ ID NO: 7 (peptide)
peptide: H[Aib]QGTFTSDVSKYLDGQAAKEFVAWLLKGC
modifications: not fully specified (C-terminus)
B4: triple agonist of SEQ ID NO: 63 (peptide)
peptide: [Acetyl(2-(4-imidazolyl))][Aib]QGTFTSDCSKYLDERAAQDFVQWLLDGGPSSGAPPPS
modifications: not fully specified (C-terminus)
B5: triple agonist of SEQ ID NO: 72 (peptide)
peptide: Y[Aib]QGTFTSDCSKYLDERAAKDFVQWLLDHHPSSGQPPPS
modifications: bridge 16-20; not fully specified (C-terminus)
B6: triple agonist of SEQ ID NO: 78 (peptide)
peptide: H[Aib]QGTFTSDYSKYLDEKRQKEFVQWLLDTKC
modifications: bridge 16-20; not fully specified (C-terminus)
B7: triple agonist of SEQ ID NO: 82 (peptide)
peptide: [Acetyl(2-(4-imidazolyl))][Aib]QGTFTSDYSKYLDEKRQKEFVQWLLDTC
modifications: bridge 16-20; not fully specified (C-terminus)
B8: triple agonist of SEQ ID NO: 68 (peptide)
peptide: Y[Aib]QGTFTSDYSKCLDEKAAKEFVQWLLDHHPSSGQPPPS
modifications: bridge 16-20; not fully specified (C-terminus)
B9: triple agonist of SEQ ID NO: 81 (peptide)
peptide: [Acetyl(2-(4-imidazolyl))][Aib]QGTFTSDYSKYLDEKRQKEFVQWLLNTC
modifications: bridge 16-20; not fully specified (C-terminus)
B10: triple agonist of SEQ ID NO: 73 (peptide)
peptide: [Acetyl(2-(4-imidazolyl))][Aib]QGTFTSDYSKYLDECRAKEFVQWLLDHHPSSGQPPPS
modifications: bridge 16-20; not fully specified (C-terminus)
B11: triple agonist of SEQ ID NO: 62 (peptide)
peptide: [Acetyl(2-(4-imidazolyl))][Aib]QGTFTSDKSKYLDERAAQDFVQWLLDGGPSSGAPPPS
modifications: not fully specified (C-terminus)
B12: triple agonist of SEQ ID NO: 60 (peptide)
peptide: [Acetyl(2-(4-imidazolyl))][Aib]QGTFTSDYSIAMDEKHCKDFVNWLLNTK
modifications: bridge 16-20; not fully specified (C-terminus)
B13: triple agonist of SEQ ID NO: 74 (peptide)
peptide: [Acetyl(2-(4-imidazolyl))][Aib]QGTFTSDYSKCLDEKRAKEFVQWLLDHHPSSGQPPPS
modifications: bridge 16-20; not fully specified (C-terminus)
B14: triple agonist of SEQ ID NO: 70 (peptide)
peptide: Y[Aib]QGTFTSDYSKCLDEKRAKDFVQWLLDHHPSSGQPPPS
modifications: bridge 16-20; not fully specified (C-terminus)
B15: triple agonist of SEQ ID NO: 66 (peptide)
peptide: Y[Aib]QGTFTSDYSKYLDECRAKDFVQWLLDHHPSSGQPPPS
modifications: bridge 16-20; not fully specified (C-terminus)
B16: triple agonist of SEQ ID NO: 61 (peptide)
peptide: [Acetyl(2-(4-imidazolyl))][Aib]QGTFTSDYSIAMDEIACKDFVNWLLNTK
modifications: bridge 16-20; not fully specified (C-terminus)
B17: triple agonist of SEQ ID NO: 67 (peptide)
peptide: Y[Aib]QGTFTSDYSKYLDECAAKDFVQWLLDHHPSSGQPPPS
modifications: bridge 16-20; not fully specified (C-terminus)
B18: triple agonist of SEQ ID NO: 79 (peptide)
peptide: H[Aib]EGTFTSDYSIAMDEIHQKDFVNWLLAQKC
modifications: bridge 16-20; not fully specified (C-terminus)
B19: triple agonist of SEQ ID NO: 77 (peptide)
peptide: Y[Aib]QGTFTSDYSKYLDEKAAKDFVQWLLDHHPSSGQPPPSC-NH2
modifications: bridge 16-20
B20: triple agonist of SEQ ID NO: 75 (peptide)
peptide: Y[Aib]QGTFTSDYSKYLDEKAAKEFVQWLLDHHPSSGQPPPSC
modifications: bridge 16-20; not fully specified (C-terminus)
B21: triple agonist of SEQ ID NO: 64 (peptide)
peptide: Y[Aib]QGTFTSDYSKYLDECAAKEFVQWLLDHHPSSGQPPPS
modifications: bridge 16-20; not fully specified (C-terminus)
B22: triple agonist of SEQ ID NO: 69 (peptide)
peptide: Y[Aib]QGTFTSDYSKCLDERAAKEFVQWLLDHHPSSGQPPPS
modifications: bridge 16-20; not fully specified (C-terminus)
B23: triple agonist of SEQ ID NO: 80 (peptide)
peptide: H[Aib]EGTFTSDYSIAMDEIHQKDFVDWLLAEKC
modifications: bridge 16-20; not fully specified (C-terminus)
B24: triple agonist of SEQ ID NO: 65 (peptide)
peptide: H[Aib]QGTFTSDYSKCLDEKRAKEFVQWLLDHHPSSGQPPPS
modifications: bridge 16-20; not fully specified (C-terminus)
B25: triple agonist of SEQ ID NO: 8 (peptide)
peptide: H[Aib]QGTFTSDVSKYLDGQAAQEFVAWLLKGC
modifications: not fully specified (C-terminus)

Molecular target: human GLP-1 receptor (human, UniProt P43220 24-463)
Assay: cell-based or functional assay

In order of rising “in vitro Activity Compared to Native Peptide (%), vs GLP-1” value:
1. B11  5.2%
2. B9  7.8%
3. B23  8.1%
4. B7  9.5%
5. B2  10.3%
6. B5  11.5%
7. B13  12.9%
8. B3  13.7%
9. B25  14.2%
10. B14  15.1%
11. B4  15.3%
12. B15  15.8%
13. B10  22.6%
14. B22  24.3%
15. B8  27.9%
16. B17  28.5%
17. B20  35.1%
18. B19  38.7%
19. B18  41.5%
20. B6  51%
21. B16  59.8%
22. B21  64.6%
23. B1  90.1%
24. B24  95.4%
25. B12  106%

Molecular target: human GCG receptor (human, UniProt P47871 26-477)
Assay: cell-based or functional assay

Sequence of human GCG receptor (P47871 26-477): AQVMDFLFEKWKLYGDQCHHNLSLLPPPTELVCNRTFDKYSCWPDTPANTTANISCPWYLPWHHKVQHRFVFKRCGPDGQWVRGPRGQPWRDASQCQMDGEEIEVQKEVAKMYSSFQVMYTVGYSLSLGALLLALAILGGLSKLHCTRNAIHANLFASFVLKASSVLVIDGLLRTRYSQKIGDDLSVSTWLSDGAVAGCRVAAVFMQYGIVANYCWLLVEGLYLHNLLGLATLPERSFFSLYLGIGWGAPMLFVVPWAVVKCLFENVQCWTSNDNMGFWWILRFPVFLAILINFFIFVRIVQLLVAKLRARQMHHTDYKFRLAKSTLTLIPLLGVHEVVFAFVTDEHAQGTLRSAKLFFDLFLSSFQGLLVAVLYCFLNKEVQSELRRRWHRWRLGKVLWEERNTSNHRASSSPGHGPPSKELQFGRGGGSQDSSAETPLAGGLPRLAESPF

Going from B1 to B2, the “in vitro Activity Compared to Native Peptide (%), vs Glucagon” value rises from 12.7% to 47.6%.

B3 and B4 cannot be ordered by “in vitro Activity Compared to Native Peptide (%), vs Glucagon” value: less than 0.1% for the first, less than 0.1% for the second.

Going from B5 to B6, the “in vitro Activity Compared to Native Peptide (%), vs Glucagon” value rises from 1% to 14%.

First: B7
Second: B8
The “in vitro Activity Compared to Native Peptide (%), vs Glucagon” value of the first is lower: 1.1% for the first, 8.8% for the second.

Compared with B9, B10 is higher in “in vitro Activity Compared to Native Peptide (%), vs Glucagon” value: 0.3% for the first, 5.4% for the second.

B11 and B12 cannot be ordered by “in vitro Activity Compared to Native Peptide (%), vs Glucagon” value: less than 0.1% for the first, less than 0.1% for the second.

First: B13
Second: B14
The “in vitro Activity Compared to Native Peptide (%), vs Glucagon” value of the first is lower: 0.9% for the first, 71.3% for the second.

First: B15
Second: B16
The “in vitro Activity Compared to Native Peptide (%), vs Glucagon” value of the first is higher: 172% for the first, less than 0.1% for the second.

First: B17
Second: B18
The “in vitro Activity Compared to Native Peptide (%), vs Glucagon” value of the first is higher: 46.2% for the first, 4.9% for the second.

Compared with B19, B20 is lower in “in vitro Activity Compared to Native Peptide (%), vs Glucagon” value: 12.2% for the first, 8.5% for the second.

First: B21
Second: B22
The “in vitro Activity Compared to Native Peptide (%), vs Glucagon” value of the first is higher: 60.1% for the first, 9.6% for the second.

Compared with B23, B24 is higher in “in vitro Activity Compared to Native Peptide (%), vs Glucagon” value: 0% for the first, 25.2% for the second.

In the case of B25, the “in vitro Activity Compared to Native Peptide (%), vs Glucagon” value is reported as 0.1%.

Molecular target: T1, human GIP receptor
Assay: cell-based or functional assay

First: B1
Second: B2
The “in vitro Activity Compared to Native Peptide (%), vs GIP” value of the first is higher: 94.7% for the first, 11.7% for the second.

B3 and B4 cannot be ordered by “in vitro Activity Compared to Native Peptide (%), vs GIP” value: less than 0.1% for the first, less than 0.1% for the second.

Compared with B5, B6 is lower in “in vitro Activity Compared to Native Peptide (%), vs GIP” value: 1.6% for the first, 0.12% for the second.

Going from B7 to B8, the “in vitro Activity Compared to Native Peptide (%), vs GIP” value rises from less than 0.1% to 107%.

Going from B9 to B10, the “in vitro Activity Compared to Native Peptide (%), vs GIP” value rises from less than 0.1% to 3%.

First: B11
Second: B12
The “in vitro Activity Compared to Native Peptide (%), vs GIP” value of the first is lower: less than 0.1% for the first, 8.2% for the second.

First: B13
Second: B14
The “in vitro Activity Compared to Native Peptide (%), vs GIP” value of the first is lower: 1% for the first, 64.4% for the second.

Compared with B15, B16 is lower in “in vitro Activity Compared to Native Peptide (%), vs GIP” value: 17.2% for the first, 2.8% for the second.

Compared with B17, B18 is lower in “in vitro Activity Compared to Native Peptide (%), vs GIP” value: 39.8% for the first, 1.4% for the second.

Going from B19 to B20, the “in vitro Activity Compared to Native Peptide (%), vs GIP” value falls from 35.5% to 18%.

Going from B21 to B22, the “in vitro Activity Compared to Native Peptide (%), vs GIP” value falls from 92.9% to 62.8%.

First: B23
Second: B24
The “in vitro Activity Compared to Native Peptide (%), vs GIP” value of the first is lower: 0.1% for the first, 11.6% for the second.

B25 was tested, and the “in vitro Activity Compared to Native Peptide (%), vs GIP” value was less than 0.1%.
